According to patent US20260193346:

Key:
[1] = molecular target: murine LTBP4 TP2E fragment (UniProt Q8K4G1)
[2] = system: T1, human LTBP4 TP2E fragment (amino acids 357-586)
T1 sequence: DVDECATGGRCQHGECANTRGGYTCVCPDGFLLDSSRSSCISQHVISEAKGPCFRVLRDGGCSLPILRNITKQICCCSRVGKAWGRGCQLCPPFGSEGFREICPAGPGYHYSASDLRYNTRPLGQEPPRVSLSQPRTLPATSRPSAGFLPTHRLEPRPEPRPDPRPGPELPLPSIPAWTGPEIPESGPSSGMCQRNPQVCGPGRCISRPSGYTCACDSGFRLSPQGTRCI

[3] = molecular target: T2, Murine LTBP4 with the 12-amino-acid insertion (expressed fragment, FIG. 5) (UniProt Q8K4G1)
T2 sequence: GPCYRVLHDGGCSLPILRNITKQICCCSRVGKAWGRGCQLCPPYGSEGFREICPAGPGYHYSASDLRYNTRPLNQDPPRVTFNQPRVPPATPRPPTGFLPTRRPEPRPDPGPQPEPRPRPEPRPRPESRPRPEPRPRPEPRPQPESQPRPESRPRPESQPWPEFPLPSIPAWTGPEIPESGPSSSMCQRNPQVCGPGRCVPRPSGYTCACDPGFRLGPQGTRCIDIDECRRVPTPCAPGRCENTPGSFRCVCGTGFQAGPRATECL

[4] = molecular target: murine LTBP4 deleted for the 12 amino acids (expressed fragment, FIG. 5) (UniProt Q8K4G1)
[5] = system: T3, human LTBP4 proline-rich region fragment (FIG. 5)
T3 sequence: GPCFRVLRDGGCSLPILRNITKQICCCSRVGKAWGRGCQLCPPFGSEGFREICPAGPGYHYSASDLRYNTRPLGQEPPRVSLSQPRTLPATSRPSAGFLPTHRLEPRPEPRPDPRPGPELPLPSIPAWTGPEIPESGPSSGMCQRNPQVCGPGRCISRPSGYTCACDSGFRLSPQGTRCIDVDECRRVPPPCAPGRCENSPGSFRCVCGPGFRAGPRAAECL

[6] = system: human latent TGFβ binding protein 4 (LTBP4), full-length
Chain of human latent TGFβ binding protein 4 (LTBP4), full-length (chain, as listed by the source): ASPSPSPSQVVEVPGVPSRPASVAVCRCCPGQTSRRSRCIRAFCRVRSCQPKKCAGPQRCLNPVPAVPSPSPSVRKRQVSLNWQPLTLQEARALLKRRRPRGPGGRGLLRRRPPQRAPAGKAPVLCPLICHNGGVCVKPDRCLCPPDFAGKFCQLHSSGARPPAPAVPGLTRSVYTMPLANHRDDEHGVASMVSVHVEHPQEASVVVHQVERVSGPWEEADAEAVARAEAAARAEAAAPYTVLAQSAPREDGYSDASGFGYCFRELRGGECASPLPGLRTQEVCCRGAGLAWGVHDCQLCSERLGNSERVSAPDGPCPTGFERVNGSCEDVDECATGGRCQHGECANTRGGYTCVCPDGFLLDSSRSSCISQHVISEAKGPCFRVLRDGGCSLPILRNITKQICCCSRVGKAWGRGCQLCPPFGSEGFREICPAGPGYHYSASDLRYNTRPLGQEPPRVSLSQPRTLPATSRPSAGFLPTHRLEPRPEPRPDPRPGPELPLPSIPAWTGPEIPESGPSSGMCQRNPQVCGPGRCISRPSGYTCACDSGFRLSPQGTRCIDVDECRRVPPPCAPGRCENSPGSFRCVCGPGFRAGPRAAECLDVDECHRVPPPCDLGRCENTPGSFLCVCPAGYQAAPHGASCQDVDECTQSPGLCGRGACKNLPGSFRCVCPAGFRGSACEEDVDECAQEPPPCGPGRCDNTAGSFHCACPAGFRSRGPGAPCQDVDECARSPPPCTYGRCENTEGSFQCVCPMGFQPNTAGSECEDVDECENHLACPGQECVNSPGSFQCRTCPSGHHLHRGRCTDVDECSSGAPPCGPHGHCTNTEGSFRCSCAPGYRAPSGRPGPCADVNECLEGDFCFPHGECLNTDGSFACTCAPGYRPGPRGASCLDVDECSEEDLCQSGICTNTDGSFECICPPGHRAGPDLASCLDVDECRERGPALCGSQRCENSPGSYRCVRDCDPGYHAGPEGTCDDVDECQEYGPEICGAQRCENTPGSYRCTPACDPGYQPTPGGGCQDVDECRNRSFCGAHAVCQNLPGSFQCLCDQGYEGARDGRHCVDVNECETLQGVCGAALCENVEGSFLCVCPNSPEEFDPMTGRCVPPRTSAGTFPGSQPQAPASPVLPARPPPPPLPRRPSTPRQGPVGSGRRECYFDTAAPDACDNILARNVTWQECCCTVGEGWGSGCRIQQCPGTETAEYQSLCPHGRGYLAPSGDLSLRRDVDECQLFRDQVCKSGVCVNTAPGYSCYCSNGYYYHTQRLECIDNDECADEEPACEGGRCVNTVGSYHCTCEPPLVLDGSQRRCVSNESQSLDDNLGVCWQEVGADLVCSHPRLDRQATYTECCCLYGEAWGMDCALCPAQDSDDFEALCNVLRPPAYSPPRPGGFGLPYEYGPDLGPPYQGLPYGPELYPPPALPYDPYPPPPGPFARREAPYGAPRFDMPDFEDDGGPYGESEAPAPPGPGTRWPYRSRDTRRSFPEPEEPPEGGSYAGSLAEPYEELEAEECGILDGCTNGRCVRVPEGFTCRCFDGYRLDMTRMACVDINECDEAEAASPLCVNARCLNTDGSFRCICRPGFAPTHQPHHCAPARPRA

Chain of plasmin (P00747 20-580): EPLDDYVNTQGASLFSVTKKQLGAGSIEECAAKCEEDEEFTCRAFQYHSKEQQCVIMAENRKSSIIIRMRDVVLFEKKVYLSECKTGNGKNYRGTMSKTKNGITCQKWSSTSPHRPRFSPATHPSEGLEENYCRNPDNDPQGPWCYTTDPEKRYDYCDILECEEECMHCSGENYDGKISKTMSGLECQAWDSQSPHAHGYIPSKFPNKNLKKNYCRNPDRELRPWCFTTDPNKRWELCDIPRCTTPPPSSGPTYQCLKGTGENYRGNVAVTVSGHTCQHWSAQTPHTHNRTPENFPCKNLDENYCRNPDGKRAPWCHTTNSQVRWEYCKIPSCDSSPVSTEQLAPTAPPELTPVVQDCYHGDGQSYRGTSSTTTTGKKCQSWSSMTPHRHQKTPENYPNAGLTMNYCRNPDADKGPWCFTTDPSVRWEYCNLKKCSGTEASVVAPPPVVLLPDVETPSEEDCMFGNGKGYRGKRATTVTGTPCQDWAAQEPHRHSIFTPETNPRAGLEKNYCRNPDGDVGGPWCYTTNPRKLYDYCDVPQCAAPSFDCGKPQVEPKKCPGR
Chain of plasmin (P00747 581-810): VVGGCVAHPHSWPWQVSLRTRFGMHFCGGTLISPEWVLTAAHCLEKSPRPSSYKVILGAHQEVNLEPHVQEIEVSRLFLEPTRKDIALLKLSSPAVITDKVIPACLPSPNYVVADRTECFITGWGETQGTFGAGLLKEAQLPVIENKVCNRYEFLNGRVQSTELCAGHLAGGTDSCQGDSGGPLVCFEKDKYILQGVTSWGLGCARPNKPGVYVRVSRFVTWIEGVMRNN

Row | Substance | proteolytic digestion of 35S-labeled fragment (dose-response and time course) [1] | proteolytic digestion of 35S-labeled fragment (dose-response and time course) [2] | proteolysis of expressed labeled fragment by plasmin [3] | proteolysis of expressed labeled fragment by plasmin [4] | proteolysis of expressed labeled fragment by plasmin [5] | plasmin proteolysis of full-length LTBP4 [6]
1 | elastase | the human TP2E fragment is more readily cleaved than the mouse LTBP4 sequence | the human TP2E fragment is more readily cleaved than the mouse LTBP4 sequence |  |  |  | 
2 | plasmin | the human TP2E fragment is more readily cleaved than the mouse LTBP4 sequence | the human TP2E fragment is more readily cleaved than the mouse LTBP4 sequence | Murine LTBP4 with the 12-amino-acid insertion was largely resistant to proteolysis | the murine LTBP4 deleted for the 12 amino acids was readily degraded | The human LTBP4 was most readily degraded | Full-length LTBP4 protein, produced from cultured cells, is also susceptible to plasmin proteolysis
